# According to the Immune Epitope Database (IEDB):
# Key:
# HLA-A*03:01 [1] = test: IEDB peptide-MHC binding, purified MHC/competitive/fluorescence; ≥ and ≤ were set here for values at or beyond the usual limits of such assays; details: source organism: Zaire ebolavirus
# HLA-A*02:01 [2] = test: as above; details: source organism: Zaire ebolavirus
# HLA-A*11:01 [3] = test: as above; details: source organism: Zaire ebolavirus
# HLA-B*15:01 = test: as above; details: source organism: Zaire ebolavirus
# HLA-A*02:01 [4] = test: IEDB peptide-MHC binding, purified MHC/competitive/fluorescence; filed as Kd, often an IC50 or EC50 that approximates it; ≥ and ≤ were set here for values at or beyond the usual limits of such assays; details: source organism: Homo sapiens
# HLA-A*02:03 = test: as above; details: source organism: Homo sapiens
# HLA-A*69:01 [5] = test: as above; details: source organism: Homo sapiens
# HLA-A*03:01 [6] = test: IEDB peptide-MHC binding, purified MHC/direct/fluorescence; filed as Kd, often an IC50 or EC50 that approximates it; ≥ and ≤ were set here for values at or beyond the usual limits of such assays; details: source organism: Influenza A virus (A/swine/Hong Kong/5190/99(H3N2))
# HLA-B*44:02 = test: as above; details: source organism: Influenza A virus (A/swine/Hong Kong/5190/99(H3N2))
# HLA-A*02:01 [7] = test: as above; details: source organism: Influenza A virus (A/swine/Hong Kong/5190/99(H3N2))
# HLA-B*08:01 = test: as above; details: source organism: Influenza A virus (A/swine/Hong Kong/5190/99(H3N2))
# HLA-A*01:01 = test: as above; details: source organism: Influenza A virus (A/swine/Hong Kong/5190/99(H3N2))
# HLA-A*11:01 [8] = test: as above; details: source organism: Influenza A virus (A/swine/Hong Kong/5190/99(H3N2))
# HLA-B*40:01 = test: as above; details: source organism: Influenza A virus (A/swine/Hong Kong/5190/99(H3N2))
# HLA-A*24:03 = test: as above; details: source organism: Influenza A virus (A/swine/Hong Kong/5190/99(H3N2))
# HLA-B*27:05 = test: as above; details: source organism: Influenza A virus (A/swine/Hong Kong/5190/99(H3N2))
# HLA-A*31:01 = test: as above; details: source organism: Influenza A virus (A/swine/Hong Kong/5190/99(H3N2))
# HLA-B*07:02 = test: as above; details: source organism: Influenza A virus (A/swine/Hong Kong/5190/99(H3N2))
# HLA-A*69:01 [9] = test: as above; details: source organism: Influenza A virus (A/swine/Hong Kong/5190/99(H3N2))
# HLA-B*58:01 = test: as above; details: source organism: Influenza A virus (A/swine/Hong Kong/5190/99(H3N2))
# HLA-A*26:01 = test: as above; details: source organism: Influenza A virus(A/swine/Henan/5/2004(H9N2))
# HLA-A*24:02 = test: as above; details: source organism: Influenza A virus (A/swine/Hong Kong/5190/99(H3N2))
sequence,measurement,setting,value
AITAASLPK,IC50,HLA-A*03:01 [1],6.97 µM
same,IC50,HLA-A*02:01 [2],≥ 281 µM
same,IC50,HLA-A*11:01 [3],0.368 µM
same,IC50,HLA-B*15:01,≥ 183 µM
FLHSGTAKS,Kd,HLA-A*02:01 [4],0.0185 µM
same,Kd,HLA-A*02:03,0.00125 µM
same,Kd,HLA-A*69:01 [5],≥ 20 µM
GYMFESKSM,Kd,HLA-A*03:01 [6],≥ 20 µM
same,Kd,HLA-B*44:02,≥ 20 µM
same,Kd,HLA-A*02:01 [7],≥ 20 µM
same,Kd,HLA-B*08:01,≥ 20 µM
same,Kd,HLA-A*01:01,≥ 20 µM
same,Kd,HLA-A*11:01 [8],≥ 20 µM
same,Kd,HLA-B*40:01,≥ 20 µM
same,Kd,HLA-A*24:03,0.0677 µM
same,Kd,HLA-B*27:05,≥ 20 µM
same,Kd,HLA-A*31:01,≥ 20 µM
same,Kd,HLA-B*07:02,≥ 20 µM
same,Kd,HLA-A*69:01 [9],≥ 20 µM
same,Kd,HLA-B*58:01,≥ 20 µM
same,Kd,HLA-A*26:01,≥ 20 µM
same,Kd,HLA-A*24:02,≥ 20 µM
